Data on 17 molecules can be found in article PMC5009254, “Accessory Interaction Motifs in the Atg19 Cargo Receptor Enable Strong Binding to the Clustered Ubiquitin-related Atg8 Protein*^([image sbox.jpg])” (The Journal of Biological Chemistry, 2016).

Assay [1] has as its target GST-Atg19 CTD W412A (S. cerevisiae) (UniProt P35193). Nature of the assay: microscopy-based protein-protein interaction assay on beads; glutathione-Sepharose beads coated with GST-Atg19 CTDs, washed, in 1 μM EGFP-Atg8 solution, 25 mM HEPES pH 7.5, 150 mM NaCl, 1 mM DTT; imaged by spinning disc microscopy without washing; signal normalized to wild type.
Assay [2] deals with GST-Atg19 CTD L384A, L387A (S. cerevisiae) (UniProt P35193). Described as above.
For assay [3], the target named is GST-Atg19 CTD F376A, F379A, L384A, L387A (S. cerevisiae) (UniProt P35193). The assay is described as above.
In assay [4] the target is T1, Atg8 (Saccharomyces cerevisiae, UniProt P38182, K26P).
T1 construct: Atg8 1–117; GST (N, cleaved yes); made in house; host or cells: Escherichia coli Rosetta pLysS DE3
Kind of assay: biochemical. The class given is binding.
Description: To test this hypothesis, we titrated 12 amino acid-long peptides containing the respective LIR-like motif in the center (Fig. 1) into labeled Atg8 and recorded the CSCs (Fig. 5). […] We attempted to determine a more exact Kd for the FYSF and LPEL peptides by isothermal titration calorimetry.
To corroborate our NMR-based interactions studies, we attempted to measure their interaction with Atg8 by isothermal titration calorimetry.

Assay [5] addresses T2, Atg8 K26P, 15N isotope-labeled (S. cerevisiae, UniProt P38182 1-117, K26P, 15N isotope-labeled).
T2 construct: Atg8, S. cerevisiae, amino acids 1-117, K26P mutant used for stability in NMR; Cloned in pGEX-4-T1; GST cut off with thrombin; also called [15N]Atg8; K26P mutant of Atg8; source: E. coli Rosetta pLysS DE3 in M9 minimal medium with [15N]ammonium chloride, purified (glutathione beads, thrombin, SEC)
T2 sequence (looked up): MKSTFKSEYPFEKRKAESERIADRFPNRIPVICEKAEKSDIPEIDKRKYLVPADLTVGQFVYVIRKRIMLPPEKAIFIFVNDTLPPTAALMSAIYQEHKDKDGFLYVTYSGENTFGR
Nature of the assay: NMR titration; unlabeled Atg19 CTD or peptide titrated into 15N-labeled Atg8 K26P; 2D 15N HSQC at 25 °C; Atg8 135-500 μM, Atg19 C terminus 15-1000 μM; Kd estimated as the median of one-site saturation fits of CSCs of four to twelve Atg8 residues. As to conditions: both partners purified.

The next assay deals with EGFP-Atg8. Kind of assay: Microscopy-based protein-protein interaction assay: EGFP-Atg8 recruited to glutathione-Sepharose beads coated with GST-Atg19 CTD. The conditions noted are these: GST-tagged Atg19 CTD on glutathione-Sepharose beads, 1 μM EGFP-Atg8, 30 min, spinning disc microscopy; mean of 3 experiments. The class given is binding, Saccharomyces cerevisiae. The source says:
To confirm the contributions of the ^376FYSF^379 and ^384LPEL^387 motifs for Atg8 binding, we employed a microscopy-based protein-protein interaction assay. To this end, EGFP-Atg8 in solution was recruited to glutathione-Sepharose beads coated with GST-Atg19 C termini (Fig. 6, A and B). Atg8 bound efficiently to beads coated with the wild-type C terminus. Upon introduction of the W412A mutation, the Atg8 signal on the beads dropped to 23%.
FIGURE 6. Accessory LIR motifs contribute to Atg8 binding in a microscopy-based interaction assay. A, glutathione-Sepharose beads were coated with GST-tagged Atg19 CTDs, washed, incubated in a 1 μM EGFP-Atg8 solution, and imaged by spinning disc microscopy. B, signal intensity of EGFP-Atg8 decreased for the LIR and accessory LIR mutants. C, quantification of the EGFP signal (mean ± S.D. from 3 experiments) on GST-Atg19 CTD-coated beads normalized to the mean signal on wild-type GST-Atg19 CTD-coated beads. Scale bars = 30 μm. TEXT PRINTED IN THE PICTURE: (B) W412A: relative binding (%): 23% | (B) L384, L387A: relative binding (%): 47% | (B) F376, F379, L384, L387A: relative binding (%): 25% | (B) L384, L387, W412A: relative binding (%): 7% | (B) F376, F379, L384, L387, W412A: relative binding (%): 2%
Glutathione-Sepharose 4B beads (GE Healthcare) were incubated with GST-tagged Atg19 C terminus for 1 h at 4 °C. After washing the beads three times with 25 mM HEPES (pH 7.5), 150 mM NaCl, and 1 mM DTT, 1 μl of a 1:1 resuspension of glutathione beads in protein solution was added to a 1 μM solution of EGFP-Atg8 30 min prior to imaging. Microscopic images were acquired using a confocal spinning disc microscope (Visitron) and processed with ImageJ software.

The target of assay [6] is Atg8. As to conditions: ITC-based Kd determination; read-out: Kd by ITC, full-length Atg19; cited from earlier work. (Isothermal titration calorimetry measures the heat released or taken up as one component is titrated into another.)
Assay [7] deals with Atg8 used for isothermal titration calorimetry (S. cerevisiae) (UniProt P38182). Kind of assay: ITC; peptides titrated, Atg8; conditions not given.
The target of another assay is T3, EGFP-Atg8, P38182.
T3 chain: T2 sequence (looked up) with P26K
Kind of assay: microscopy-based protein-protein interaction assay (GST-Atg19 CTD on glutathione-Sepharose beads, spinning disc microscopy). As to conditions: chain shown with the change; 1 μm EGFP-Atg8 solution; parent: 100.

Numbering of substitutions follows the chain as printed. In names and notes the source's numbering stands. Where no end group is shown, it is not given here.

“EGFP-Atg8 (from UniProt P38182 1-116) (natural protein)”: the EGFP-Atg8 signal on beads, percent of wild type in assay [1] came out at 23%; in assay [2], 47%; in assay [3] it was 25%.
Usually Kd stands for the constant that tells how readily two partners part at equilibrium. Take GDDNEKALTWEEL [canonical LIR peptide]: the Kd on Atg8 [4] was determined as 2.8 µM.
For the molecule SQEPFYSFQIDT [12 amino acid peptide containing 376FYSF379 of Atg19], the Kd in assay [5] was roughly 330 µM.

B1: W412A (protein, UniProt P35193 1-415, looked up, variant W412A)
Autophagy-related protein 19: MNNSKTNQQMNTSMGYPLTVYDECNKFQLIVPTLDANIMLWCIGQLSLLNDSNGCKHLFWQPNDKSNVRILLNNYDYGHLFKYLQCQRKCSVYIGEGTLKKYNLTISTSFDNFLDLTPSEEKESLCREDAHEDPVSPKAGSEEEISPNSTSNVVVSRECLDNFMKQLLKLEESLNKLELEQKVTNKEPNHRISGTIDIPEDRSELVNFFTELKTVKQLEDVFQRYHDYERLSQECDSKTEIASDHSKKETKIEVEPPNERSLQITMNQRDNSLYFQLFNNTNSVLAGNCKLKFTDAGDKPTTQIIDMGPHEIGIKEYKEYRYFPYALDLEAGSTIEIENQYGEVIFLGKYGSSPMINLRPPSRLSAESLQASQEPFYSFQIDTLPELDDSSIISTSISLSYDGDDNEKALTAEEL
On to B1, for which the “relative binding (EGFP-Atg8 signal on beads, normalized to wild-type GST-Atg19 CTD)” value in the assay on EGFP-Atg8 is 23%.

B2: F376, F379, L384, L387A (protein, UniProt P35193 1-415, looked up, variant F376A F379A L384A L387A)
Autophagy-related protein 19: B1 Autophagy-related protein 19 with F376A, F379A, L384A, L387A, A412W
Take B2: the “relative binding (EGFP-Atg8 signal on beads, normalized to wild-type GST-Atg19 CTD)” value in the assay on EGFP-Atg8 amounted to 25%.

B3: full-length Atg19: full-length Atg19 cargo receptor of S. cerevisiae (protein, UniProt P35193 1-415, looked up)
chain: B1 Autophagy-related protein 19 with A412W
modifications: full-length
notes: full-length Atg19 cargo receptor of S. cerevisiae
With B3, on Atg8 [6], the Kd is 35 µM.

B4: L384, L387, W412A (protein, UniProt P35193 1-415, looked up, variant L384A L387A W412A)
Autophagy-related protein 19: B1 Autophagy-related protein 19 with L384A, L387A
On to B4, for which the “relative binding (EGFP-Atg8 signal on beads, normalized to wild-type GST-Atg19 CTD)” value with EGFP-Atg8 is given as 7%.

B5: L384A, L387A (protein, UniProt P35193 1-415, looked up, variant L384A L387A)
Autophagy-related protein 19: B1 Autophagy-related protein 19 with L384A, L387A, A412W
With B5, the “relative binding (EGFP-Atg8 signal on beads, normalized to wild-type GST-Atg19 CTD)” value with EGFP-Atg8 is recorded as 47%.

B6: Atg19 CTD (amino acids 365-407) F376A, F379A, L384A, L387A (domain or fragment, S. cerevisiae, UniProt P35193 365-407, looked up)
chain: SAESLQASQEPAYSAQIDTAPEADDSSIISTSISLSYDGDDNE
notes: Atg19, S. cerevisiae, amino acids 365-407 (last eight amino acids 408-415 deleted), F376A, F379A, L384A, L387A; also called FFLLΔ; source: E. coli Rosetta pLysS DE3, purified (glutathione beads, thrombin, SEC)
In the case of B6, in assay [5], the Kd is 600 µM.
For QIDTLPELDDSS [12 amino acid peptide containing 384LPEL387 of Atg19], in [5], the Kd was roughly 590 µM.
Turning to GDDNEKALTWEEL [peptide containing the canonical 412WEEL415 motif (Atg19, 403…415)], the dissociation constant (Kd) in assay [7] came out at 2.8 µM.

B7: GST-Atg19 CTD, wild type, P35193 L384A; L387A; W412A (protein)
chain: SAESLQASQEPFYSFQIDTAPEADDSSIISTSISLSYDGDDNEKALTAEEL
For the molecule B7, the percent of parent with EGFP-Atg8, P38182 amounted to 7%.

B8: GST-Atg19 CTD, wild type, P35193 F376A; F379A; L384A; L387A; W412A (protein)
chain: B7 chain with F12A, F15A
Consider B8, for which the percent of parent in the assay with EGFP-Atg8, P38182 turned out to be 2%.

B9: Atg19 C-terminal domain (amino acids 365-415), wild type (domain or fragment, S. cerevisiae, UniProt P35193 365-415, looked up)
chain: B7 chain with A20L, A23L, A48W
notes: Atg19, S. cerevisiae, C-terminal domain, amino acids 365-415; also called Atg19 CTD; wild-type Atg19 C terminus; source: E. coli Rosetta pLysS DE3, purified (glutathione beads, thrombin, SEC)
Take B9: the dissociation constant Kd in [5] is roughly 130 µM.

B10: Atg19 W412A CTD (amino acids 365-415) (domain or fragment, S. cerevisiae, UniProt P35193 365-415, looked up)
chain: B7 chain with A20L, A23L
notes: Atg19, S. cerevisiae, C-terminal domain, amino acids 365-415, W412A; also called WA; W412A mutant Atg19 CTD; source: E. coli Rosetta pLysS DE3, purified (glutathione beads, thrombin, SEC)
Take B10: the Kd in assay [5] was 180 µM.

B11: Atg19 CTD L384A, L387A (amino acids 365-415) (domain or fragment, S. cerevisiae, UniProt P35193 365-415, looked up)
chain: B7 chain with A48W
notes: Atg19, S. cerevisiae, C-terminal domain, amino acids 365-415, L384A, L387A; also called LLA; source: E. coli Rosetta pLysS DE3, purified (glutathione beads, thrombin, SEC)
In the case of B11, in [5], the equilibrium dissociation constant (Kd) was roughly 70 µM.

B12: Atg19 CTD F376A, F379A, W412A (amino acids 365-415) (domain or fragment, S. cerevisiae, UniProt P35193 365-415, looked up)
chain: B7 chain with F12A, F15A, A20L, A23L
notes: Atg19, S. cerevisiae, C-terminal domain, amino acids 365-415, F376A, F379A, W412A; also called FFWA; triple mutant C terminus; source: E. coli Rosetta pLysS DE3, purified (glutathione beads, thrombin, SEC)
With B12, in [5], the Kd was 290 µM.
